Type in all cases: binding
Experiment [1] addresses T1, LC3B (Homo sapiens, UniProt Q9GZQ8).
T1 construct: LC3B, residues 5–120; ubiquitin tag Ub3 (vector pETm60_Ub3) (cleaved yes); made in house; host or cells: E. coli T7 Express
Description: ITC, UBA5 peptides vs LC3B. Conditions: 25 °C, vs LC3B. The text has this: (§1) To understand how the UBA5 C-terminus participates in the ufmylation cascade, we performed isothermal titration calorimetry (ITC) experiments, in which we titrated UBA5 C-terminal peptides (see Table 1) to the UBA5 AD, UFC1, UFM1 and representative LC3/GABARAP proteins (Figure 2A, Supplementary Figure S2A–D and Table 2).
(§2) All proteins and peptides were expressed in E.Coli T7 Express (New England Biolabs GmbH, Frankfurt, Germany) cells in LB or M9 (to obtain ^15N- and ^13C,^15N-labeled polypeptides) media according to the protocol described in [33, 36]. For protein purification, bacterial cell pellets were resuspended in lysis buffer (50 mM Tris-HCl pH = 7.5, 100 mM NaCl, 5% glycerol, 5 mM PIC (protease inhibitor cocktail)) and lysed via sonication (TT13 Sonotrode, 40% amplitude, for 6 × 1 min with a 0.5/0.5-s pulse). Lysates were centrifuged for 45 min at 17,000× g at 4 °C. Supernatants were loaded onto a His Trap Fast Flow 5 mL column (GE Healthcare, München, Germany) equilibrated in loading buffer (50 mM Tris-HCl pH = 8.0, 250 mM NaCl, 1% glycerol, 20 mM imidazole). The column was washed with loading buffer for 5–10 CV and protein was eluted with elution buffer (50 mM Tris-HCl pH = 8, 250 mM NaCl, 1% glycerol, 400 mM imidazole). Simultaneous TEV cleavage (1 mg TEV protease was added to 100 mg peptides/proteins) and buffer exchange to loading buffer via dialysis was performed over night at 4 °C. After reverse IMAC, proteins were concentrated with conical concentrators (Millipore Merck, Darmstadt, Germany) and loaded on a Superdex 10/60 75 or 200 column (GE Healthcare, München, Germany) for further purification and equilibration with ITC/NMR buffer (25 mM HEPES pH = 7.5, 100 mM NaCl). For structural NMR spectroscopy, buffer containing 50 mM Tris-HCl pH = 7.5, 100 mM NaCl was used. Prior to NMR experiments, TCEP and protease inhibitors cocktail were added to the samples to final concentrations 1 and 5 mM, respectively. Purified peptides and protein were concentrated and stored at −80 °C. The protein and peptide concentrations were calculated from the UV absorption at 280 nm by Nanodrop spectrophotometer (Thermo Scientific, Langenselbold, Germany).
All ITC experiments were performed at 25 °C using a VP-ITC microcalorimeter (Malvern Panalytical Ltd., Malvern, UK). Peptides in concentration of ~400 µM were titrated into 20–25 µM solutions of corresponding binding partner at a stirring speed of 307 rpm. The raw data were corrected on the dilution heat of peptides obtained in independent experiment (titration of the peptide in syringe into the ITC/NMR buffer in the measuring cell). Pre-titration delay was set to 180 s, interval between titration steps was experimentally adjusted to avoid kinetic contribution to the observed heat effects and set to 200 s. A single ITC profile was collected for each type of interaction. The ITC data were analyzed based on a “one-site” binding model with MicroCal ITC software implemented in Origin 7.0.

Experiment [2] concerns the target T2, GABARAP (Homo sapiens, UniProt O95166).
T2 construct: modified ubiquitin tag (Ub19) with TEV site (N, cleaved yes); made in house; host or cells: E. coli T7 Express
Description: ITC, UBA5 peptides vs GABARAP. Conditions: 25 °C.
Source text: as §1
as §2, with “For structural NMR spectroscopy, buffer containing 50 mM Tris-HCl pH = 7.5, 100 mM NaCl was used. Prior to NMR experiments, TCEP and protease inhibitors cocktail were added to the samples to final concentrations 1 and 5 mM, respectively. Purified peptides and protein were concentrated and stored at −80 °C.” left out
All ITC experiments were performed at 25 °C using a VP-ITC microcalorimeter (Malvern Panalytical Ltd., Malvern, UK). […] The ITC data were analyzed based on a “one-site” binding model with MicroCal ITC software implemented in Origin 7.0.

In experiment [3] the target is T3, UFC1 (Homo sapiens, UniProt Q9Y3C8).
T3 construct: Full length UFC1, residues 1–167; modified ubiquitin tag (Ub19) with TEV site (N, cleaved yes); made in house; host or cells: E. coli T7 Express
T3 sequence (Q9Y3C8 1-167): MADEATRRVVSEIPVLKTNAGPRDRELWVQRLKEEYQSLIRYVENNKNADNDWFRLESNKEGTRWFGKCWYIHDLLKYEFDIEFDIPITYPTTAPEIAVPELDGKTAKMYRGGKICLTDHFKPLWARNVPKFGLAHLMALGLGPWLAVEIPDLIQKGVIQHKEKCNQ
Description: NMR titration with UFC1. As to conditions: [15N,1H] TROSY-HSQC, 25 °C. The protocol: To understand the role of the UBA5 C-terminal region in coordination of the binding events reported above on the molecular level, we performed NMR titration experiments. […] It seems, that these UBA5 residues form additional interactions with UFC1.
All NMR experiments were performed at a sample temperature of 25 °C on Bruker 600, 700, 800, 900, and 950 MHz spectrometers equipped with cryogenic probes, and a 500 MHz spectrometer equipped with a room-temperature triple-resonance probe. All NMR spectra were analyzed with the Sparky 3.114 software (University of California, San Francisco, USA). For NMR titration experiments, the non-labeled UBA5 peptides were titrated to 100 µM ^13C,^15N-labeled UFC1 to a final molar ratio of 1:8 (UFC1:UBA5 peptide). Conversely, 100 µM ^13C,^15N-labeled UBA5 peptides were titrated with non-labeled UFC1 to a final molar ratio 1:4 (UBA5 peptide:UFC1). 2D ^1H-^15N correlation spectra ([^15N,^1H] TROSY-HSQC) were recorded at each titration point. The same types of spectra were recorded to estimate binding of ^13C,^15N-labeled UFC1 (75 µM) to non-labeled UBA5, UBA5~UFM1 and UFM1 at 1:2 molar ratios. CSP values, Δδ, were calculated for each individual amide group using the formula Δδ = [(ΔδN/5)^2 + Δδ^2HN)]^1/2.

T2 sequence (O95166 3-116): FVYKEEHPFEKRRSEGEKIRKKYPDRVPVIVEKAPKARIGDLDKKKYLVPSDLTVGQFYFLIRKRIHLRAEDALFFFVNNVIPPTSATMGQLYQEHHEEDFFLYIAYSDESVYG

Consider “R1-R2-R3^325–404: UBA5 C-terminal part, residues 325–404 (recombinant, E. coli)”, for which, in experiment [1], the ΔG is -7.33 kcal/mol, the ΔS is recorded as 8.86 cal mol^−1 K^−1 and the “−T*ΔS” value is -2.64 kcal/mol. In addition, the “KA*10^−6” value in experiment [1] (value is KA × 10^−6, ± = fitting error) was found to be 0.24 ± 0.09 M^−1. For the same substance, in experiment [2], the ΔG is -8.15 kcal/mol, the ΔS came to 24.2 cal mol^−1 K^−1 and the “−T*ΔS” value was -7.22 kcal/mol. Besides, the “interaction with UFC1 (in words)” value in experiment [3] is listed as “mediated mostly by the UBA5 residues 386–404”.

(Values after article PMC8304084, “A Concerted Action of UBA5 C-Terminal Unstructured Regions Is Important for Transfer of Activated UFM1 to UFC1” (International Journal of Molecular Sciences, 2021).)
